# Results as given in US6926883B1, “Group (VII) transition-metal complexes with multidentate aminopolycarboxylate ligands and a kit for producing them” (Mallinckrodt Inc, priority 1999, dated 2005).
# Key:
# in vivo [1] = assay: in vivo; set-up: species or system Lewis rats; conditions: male, Lewis, rat, iv, 50 uCi, total radioactivity
# Description: (§1) These studies were performed to evaluate the biodistribution and imaging potential of these compounds in Lewis rats bearing CA20948 rat pancreatic tumor implants. For each study, six (6) male Lewis rats bearing CA20948 tumor implants were anesthetized with Metofane gas and injected via the jugular vein with 200 μL (using the compounds of Example 2) or 50 μL (using the compound of Example 3) of test article containing ˜50 μCi of activity. The animals were imaged for 100K counts under a gamma camera at 30 minute (n=3) and 4 hours (n=3) post injection after which time they were sacrificed and the following tissues removed for assay: blood, liver, kidneys, muscle, spleen, pancreas, small intestines, adrenals and tumor. The data are presented as % injected dose per gram and % injected dose per whole organ. The comparative data are also represented graphically.
# [2] = test system: CA20948 rat pancreatic tumor implants; assay: in vivo; set-up: species or system Lewis rats
# Description: as §1
# [3] = set-up: species or system Lewis rats; conditions: rat, in vivo
# Description: During the general biodistribution studies, one additional animal per study was ligated to prevent urination prior to injection. The animal was kept anesthetized for 3 hours post injection, and was subsequently sacrificed, urine removed. The volume and activity of the urine was measured, and a sample was analyzed by HPLC using the method described above.
# in vivo [4] = format: in vivo, Lewis rats; conditions: Lewis, rat, in vivo, total radioactivity
# Description: (§2) Two rats for each group were used. Group 1 received 500 μL PBS administered subcutaneously in the nape of the neck 30 minutes prior to the injection of [^99mTc(CO)3(DTPA′-Y^3-Octreotate)]. Group 2 received 350 μg Y^3-Octreotate in 500 μL phosphate buffered saline (PBS) administered subcutaneously in the nape of the neck 30 minutes prior to the injection of [^99mTc(CO)3(DTPA′-Y^3-Octreotate)].
# (§3) 30 minutes after injection of the cold peptide or saline control, the animals were anesthetized with Metofane gas and injected with 50 μL (50 μCi) of [^99mTc(CO)3(DTPA′-Y^3-Octreotate)]. At three hours post injection the animals were sacrificed, blood samples taken, and then the rats were scintigraphed for 100K counts (FIG. 3). At the conclusion of the scintigraphy, the animals were necropsied, and the following tissues removed for radioassay: liver, kidneys, muscle, spleen, heart, pancreas, adrenals, and tumor. The data were calculated as % injected dose per gram and % injected dose per whole organ.
# SST-2 Receptors = molecular target: T1, SST-2 Receptors (Rattus norvegicus, UniProt P30680); assay: in vivo; format: in vivo, Lewis rats; conditions: 350 μg cold Y3-Octreotate 30 minutes prior; three hours post injection
# T1 construct: from tissue; host or cells: Lewis rats bearing CA20948 tumor implants
# Description: as §2, §3
# T1 sequence (P30680 whole entry): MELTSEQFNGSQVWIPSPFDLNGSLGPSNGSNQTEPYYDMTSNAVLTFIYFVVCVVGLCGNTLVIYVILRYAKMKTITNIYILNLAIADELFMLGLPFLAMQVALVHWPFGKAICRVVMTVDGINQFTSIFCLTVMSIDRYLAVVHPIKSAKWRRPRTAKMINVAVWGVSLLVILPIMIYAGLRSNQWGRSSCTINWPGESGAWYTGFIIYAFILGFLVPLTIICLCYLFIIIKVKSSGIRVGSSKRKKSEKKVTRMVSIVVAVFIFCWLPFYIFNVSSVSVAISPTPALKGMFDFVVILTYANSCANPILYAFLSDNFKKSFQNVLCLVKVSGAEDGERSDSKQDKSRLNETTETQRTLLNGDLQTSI
compound,measurement,setting,value
"C[C@@H](O)[C@H](NC(=O)[C@@H]1CSSC[C@H](NC(=O)[C@@H](Cc2ccccc2)NC(=O)CN(CCN(CCN(CC(=O)O)CC(=O)O)CC(=O)O)CC(=O)O)C(=O)N[C@@H](Cc2ccc(O)cc2)C(=O)N[C@H](Cc2c[nH]c3ccccc23)C(=O)N[C@@H](CCCCN)C(=O)N[C@@H]([C@@H](C)O)C(=O)N1)C(=O)O [MP-2138, Tc-99m(CO)3-n-DTPA-Tyr-3-Octreotate, metal not drawn]",tissue uptake at 0.5 h,in vivo [1]; Blood % ID/g,0.735 ± 0.027 %ID/g
same,tissue uptake at 4 h,in vivo [1]; Blood % ID/g,0.218 ± 0.01 %ID/g
same,tissue uptake at 0.5 h,in vivo [1]; Kidney % ID/g,5.282 ± 0.014 %ID/g
same,tissue uptake at 4 h,in vivo [1]; Kidney % ID/g,5.703 ± 0.052 %ID/g
same,tissue uptake at 0.5 h,in vivo [1]; Liver % ID/g,0.567 ± 0.015 %ID/g
same,tissue uptake at 4 h,in vivo [1]; Liver % ID/g,0.516 ± 0.034 %ID/g
same,tissue uptake at 0.5 h,in vivo [1]; Pancreas % ID/g,1.56 ± 0.11 %ID/g
same,tissue uptake at 4 h,in vivo [1]; Pancreas % ID/g,1.76 ± 0.089 %ID/g
same,tissue uptake at 0.5 h,in vivo [1]; Tumor % ID/g,0.847 ± 0.078 %ID/g
same,tissue uptake at 4 h,in vivo [1]; Tumor % ID/g,0.822 ± 0.13 %ID/g
same,tissue to tissue ratio at 0.5 h,in vivo [1]; Tumor/Blood,1.1
same,tissue to tissue ratio at 4 h,in vivo [1]; Tumor/Blood,3.7
same,tissue to tissue ratio at 0.5 h,in vivo [1]; Tumor/Kidney,0.14
same,tissue to tissue ratio at 4 h,in vivo [1]; Tumor/Kidney,0.14
same,tissue to tissue ratio at 0.5 h,in vivo [1]; Tumor/Liver,1.3
same,tissue to tissue ratio at 4 h,in vivo [1]; Tumor/Liver,1.6
"Tc-99m(CO)3-His-Tyr-3-Octreotate [MP-2377, reference compound]",Blood (% ID/g at 4 hours p.i.),[2],0.03 % ID/g
same,Kidney (% ID/g at 4 hours p.i.),[2],1.64 % ID/g
same,Liver (% ID/g at 4 hours p.i.),[2],0.28 % ID/g
same,Pancreas (% ID/g at 4 hours p.i.),[2],2.67 % ID/g
same,Tumor (% ID/g at 4 hours p.i.),[2],1.00 % ID/g
same,Activity of Urine,[3],5.8 μCi
same,Metabolism: state of compound in urine by HPLC analysis,[3],essentially intact
same,Volume of Urine,[3],1.5 mL
Tc-99m(CO)3-iso-DTPA-Tyr-3-Octreotate [MP-2423],Tumor/Liver,[2],3
"C[C@@H](O)[C@H](NC(=O)[C@@H]1CSSC[C@H](NC(=O)[C@@H](Cc2ccccc2)NC(=O)CC(C(=O)O)N(CCN(CC(=O)O)CC(=O)O)CCN(CC(=O)O)CC(=O)O)C(=O)N[C@@H](Cc2ccc(O)cc2)C(=O)N[C@H](Cc2c[nH]c3ccccc23)C(=O)N[C@@H](CCCCN)C(=O)N[C@@H]([C@@H](C)O)C(=O)N1)C(=O)O (stereo partly drawn) [MP-2148, Tc-99m(CO)3-DTPA′-Tyr-3-Octreotate, metal not drawn]",tissue uptake at 0.5 h,in vivo [1]; Blood % ID/g,0.471 ± 0.035 %ID/g
same,tissue uptake at 4 h,in vivo [1]; Blood % ID/g,0.114 ± 0.005 %ID/g
same,tissue uptake at 4 h,in vivo [1]; Blood (% ID/g at 4 hours p.i.),0.083 %ID/g
same,tissue uptake at 0.5 h,in vivo [1]; Kidney % ID/g,2.14 ± 0.12 %ID/g
same,tissue uptake at 4 h,in vivo [1]; Kidney % ID/g,3.14 ± 0.08 %ID/g
same,tissue uptake at 4 h,in vivo [1]; Kidney (% ID/g at 4 hours p.i.),3.27 %ID/g
same,tissue uptake at 0.5 h,in vivo [1]; Liver % ID/g,0.494 ± 0.011 %ID/g
same,tissue uptake at 4 h,in vivo [1]; Liver % ID/g,0.363 ± 0.022 %ID/g
same,tissue uptake at 4 h,in vivo [1]; Liver (% ID/g at 4 hours p.i.),0.19 %ID/g
same,tissue uptake at 0.5 h,in vivo [1]; Pancreas % ID/g,1.15 ± 0.032 %ID/g
same,tissue uptake at 4 h,in vivo [1]; Pancreas % ID/g,0.956 ± 0.054 %ID/g
same,tissue uptake at 4 h,in vivo [1]; Pancreas (% ID/g at 4 hours p.i.),0.99 %ID/g
same,tissue uptake at 0.5 h,in vivo [1]; Tumor % ID/g,0.793 ± 0.041 %ID/g
same,tissue uptake at 4 h,in vivo [1]; Tumor % ID/g,0.769 ± 0.069 %ID/g
same,tissue uptake at 4 h,in vivo [1]; Tumor (% ID/g at 4 hours p.i.),1.06 %ID/g
same,tissue to tissue ratio at 0.5 h,in vivo [1]; Tumor/Blood,1.7
same,tissue to tissue ratio at 4 h,in vivo [1]; Tumor/Blood,6.7
same,tissue to tissue ratio at 0.5 h,in vivo [1]; Tumor/Kidney,0.37
same,tissue to tissue ratio at 4 h,in vivo [1]; Tumor/Kidney,0.25
same,tissue to tissue ratio at 0.5 h,in vivo [1]; Tumor/Liver,1.6
same,tissue to tissue ratio at 4 h,in vivo [1]; Tumor/Liver,2.1
same,Amount of activity in the liver and GI tract compared to [99mTc(CO)3(His-Y3-Octreotate)],[2],significantly less
same,Biodistribution characteristics vs iso-DTPA-Y3-Octreotate and n-DTPA-Y3-Octreotate,[2],better biodistribution characteristics
same,Hepatobiliary uptake and clearance compared to [99mTc(CO)3(His-Y3-Octreotate)],[2],less hepatobiliary uptake and clearance
same,tissue uptake dose at 3 h,"in vivo [4]; 50 uCi, Adrenals % ID/organ",0.042 %ID
same,tissue uptake at 3 h,"in vivo [4]; 50 uCi, Blood % ID/g",0.115 %ID/g
same,tissue uptake dose at 3 h,"in vivo [4]; 50 uCi, Blood % ID/organ",1.44 %ID
same,tissue uptake at 3 h,"in vivo [4]; 50 uCi, Heart % ID/g",0.062 %ID/g
same,tissue uptake dose at 3 h,"in vivo [4]; 50 uCi, Heart % ID/organ",0.049 %ID
same,tissue uptake at 3 h,"in vivo [4]; 50 uCi, Kidneys % ID/g",2.98 %ID/g
same,tissue uptake dose at 3 h,"in vivo [4]; 50 uCi, Kidneys % ID/organ",6.82 %ID
same,tissue uptake at 3 h,"in vivo [4]; 50 uCi, Liver % ID/g",0.236 %ID/g
same,tissue uptake dose at 3 h,"in vivo [4]; 50 uCi, Liver % ID/organ",2.35 %ID
same,tissue uptake at 3 h,"in vivo [4]; 50 uCi, Muscle % ID/g",0.058 %ID/g
same,tissue uptake dose at 3 h,"in vivo [4]; 50 uCi, Muscle % ID/organ",6.6 %ID
same,tissue uptake at 3 h,"in vivo [4]; 50 uCi, Pancreas % ID/g",0.916 %ID/g
same,tissue uptake dose at 3 h,"in vivo [4]; 50 uCi, Pancreas % ID/organ",0.762 %ID
same,tissue uptake at 3 h,"in vivo [4]; 50 uCi, Spleen % ID/g",0.081 %ID/g
same,tissue uptake dose at 3 h,"in vivo [4]; 50 uCi, Spleen % ID/organ",0.044 %ID
same,tissue uptake at 3 h,"in vivo [4]; 50 uCi, Tumor % ID/g",1.11 %ID/g
same,tissue uptake dose at 3 h,"in vivo [4]; 50 uCi, Tumor % ID/organ",5.18 %ID
same,tissue uptake dose at 3 h,in vivo [4]; Adrenals % ID/organ,0.008 %ID
same,tissue uptake dose at 3 h,in vivo [4]; Blood % ID/organ,1.59 %ID
same,tissue uptake dose at 3 h,in vivo [4]; Heart % ID/organ,0.057 %ID
same,tissue uptake dose at 3 h,in vivo [4]; Kidneys % ID/organ,6.24 %ID
same,tissue uptake dose at 3 h,in vivo [4]; Liver % ID/organ,2.61 %ID
same,tissue uptake dose at 3 h,in vivo [4]; Muscle % ID/organ,6.93 %ID
same,tissue uptake dose at 3 h,in vivo [4]; Pancreas % ID/organ,0.052 %ID
same,tissue uptake dose at 3 h,in vivo [4]; Spleen % ID/organ,0.042 %ID
same,tissue uptake dose at 3 h,in vivo [4]; Tumor % ID/organ,0.493 %ID
same,Reduction of uptake in the adrenals in somatostatin receptor-blocked animals,SST-2 Receptors,81%
same,Reduction of uptake in the pancreas in somatostatin receptor-blocked animals,SST-2 Receptors,95%
same,Reduction of uptake in the tumor in somatostatin receptor-blocked animals,SST-2 Receptors,90%
same,Activity of Urine,[3],10.4 μCi
same,Metabolism: state of compound in urine by HPLC analysis,[3],essentially intact
same,Volume of Urine,[3],1.5 mL
